B1: Caspase-8 (Homo sapiens), Q14790 (parent)
chain: MDFSRNLYDIGEQLDSEDLASLKFLSLDYIPQRKQEPIKDALMLFQRLQEKRMLEESNLSFLKELLFRINRLDLLITYLNTRKEEMERELQTPGRAQISAYRVMLYQISEEVSRSELRSFKFLLQEEISKCKLDDDMNLLDIFIEMEKRVILGEGKLDILKRVCAQINKSLLKIINDYEEFSKERSSSLEGSPDEFSNGEELCGVMTISDSPREQDSESQTLDKVYQMKSKPRGYCLIINNHNFAKAREKVPKLHSIRDRNGTHLDAGALTTTFEELHFEIKPHDDCTVEQIYEILKIYQLMDHSNMDCFICCILSHGDKGIIYGTDGQEAPIYELTSQFTGLKCPSLAGKPKVFFIQACQGDNYQKGIPVETDSEEQPYLEMDLSSPQTRYIPDEADFLLGMATVNNCVSYRNPAEGTWYIQSLCQSLRERCPRGDDILTILTEVNYEVSNKDDKKNMGKQMPQPTFTLRKKLVFPSD

Variants of: B1
Settings: with bcl2_human BCL2, P10415
Sequence of bcl2_human BCL2, P10415 (P10415 whole entry): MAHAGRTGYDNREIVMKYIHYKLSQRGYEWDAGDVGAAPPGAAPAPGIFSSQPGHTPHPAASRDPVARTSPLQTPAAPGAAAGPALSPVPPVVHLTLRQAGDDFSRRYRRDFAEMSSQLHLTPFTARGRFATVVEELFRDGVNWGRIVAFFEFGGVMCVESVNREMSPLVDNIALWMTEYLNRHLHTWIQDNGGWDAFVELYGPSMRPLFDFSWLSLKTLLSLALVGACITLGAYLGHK

effect of a mutation on the interaction	Variant
increasing interaction	C360S

Reference: IntAct's records for PubMed 16183855
